We go through 181 variants from IntAct's records for PubMed 29039417.

To fix the notation:
B1: BBSome complex member BBS5 (Homo sapiens), Q8N3I7 (parent)
chain: MSVLDALWEDRDVRFDLSAQQMKTRPGEVLIDCLDSIEDTKGNNGDRGRLLVTNLRILWHSLALSRVNVSVGYNCILNITTRTANSKLRGQTEALYILTKCNSTRFEFIFTNLVPGSPRLFTSVMAVHRAYETSKMYRDFKLRSALIQNKQLRLLPQEHVYDKINGVWNLSSDQGNLGTFFITNVRIVWHANMNDSFNVSIPYLQIRSIKIRDSKFGLALVIESSQQSGGYVLGFKIDPVEKLQESVKEINSLHKVYSASPIFGVDYEMEEKPQPLEALTVEQIQDDVEIDSDGHTDAFVAYFADGNKQQDREPVFSEELGLAIEKLKDGFTLQGLWEVMS
partner: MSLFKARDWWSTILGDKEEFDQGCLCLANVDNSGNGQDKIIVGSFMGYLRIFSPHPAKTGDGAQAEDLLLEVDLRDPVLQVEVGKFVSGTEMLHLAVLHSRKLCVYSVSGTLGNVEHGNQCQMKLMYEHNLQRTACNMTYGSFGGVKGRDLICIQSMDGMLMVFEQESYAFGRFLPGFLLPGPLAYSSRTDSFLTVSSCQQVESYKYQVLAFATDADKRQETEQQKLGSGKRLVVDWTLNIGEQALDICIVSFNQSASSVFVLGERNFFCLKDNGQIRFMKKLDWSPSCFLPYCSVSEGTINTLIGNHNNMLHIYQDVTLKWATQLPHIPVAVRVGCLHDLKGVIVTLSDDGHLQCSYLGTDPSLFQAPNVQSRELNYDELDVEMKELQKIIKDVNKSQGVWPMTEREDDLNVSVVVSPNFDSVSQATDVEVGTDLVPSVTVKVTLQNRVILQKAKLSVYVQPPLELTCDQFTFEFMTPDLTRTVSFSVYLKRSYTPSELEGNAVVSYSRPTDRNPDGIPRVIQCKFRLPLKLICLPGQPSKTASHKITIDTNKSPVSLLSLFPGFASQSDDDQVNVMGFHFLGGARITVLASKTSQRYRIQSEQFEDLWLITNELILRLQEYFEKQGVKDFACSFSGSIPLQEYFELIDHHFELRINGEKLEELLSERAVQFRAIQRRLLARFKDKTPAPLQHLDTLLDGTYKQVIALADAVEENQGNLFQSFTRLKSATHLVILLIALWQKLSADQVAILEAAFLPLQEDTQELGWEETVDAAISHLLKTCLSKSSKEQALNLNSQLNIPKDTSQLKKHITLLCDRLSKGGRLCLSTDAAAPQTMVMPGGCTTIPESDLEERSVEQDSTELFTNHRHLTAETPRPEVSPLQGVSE

The variants in this assay derive from B1. The note with it: with pthb1_human BBS9, Q3SYG4.
Take M340A: the “effect of a mutation on the interaction” value is recorded as “with no effect”.
With M340E the entry was “with no effect”; with E249A, “with no effect”; with N102E, “with no effect”.
Take N169K: the “effect of a mutation on the interaction” value was “with no effect”.
In the case of S2K, the “effect of a mutation on the interaction” value was “with no effect”.
Take F140E: the “effect of a mutation on the interaction” value is listed as “with no effect”.
In the case of M193E it was “with no effect”; in that of R207E, “with no effect”; in that of I57A, “with no effect”.
With Q283E the entry was “with no effect”; with D213A, “with no effect”.
With D213K the entry was “with no effect”; with A63E, “with no effect”; with E245K, “with no effect”.
N78A: the “effect of a mutation on the interaction” value is on record as “with no effect”.
In the case of F106A it was “with no effect”; in that of L64E, “with no effect”.
With L64A the entry was “with no effect”; with V256A, “with no effect”; with G175E, “with no effect”.
In the case of K255A it was “with no effect”.
For Q310K, the “effect of a mutation on the interaction” value is on record as “with no effect”.
In the case of T280K it was “with no effect”; in that of N184A, “with no effect”.
Take R186A: the “effect of a mutation on the interaction” value is recorded as “with no effect”.
With N149K the entry was “with no effect”; with R138A, “with no effect”.
With T122A the entry was “with no effect”.
In the case of A191K it was “with no effect”; in that of S224K, “with no effect”.
As for A259E, the “effect of a mutation on the interaction” value is listed as “with no effect”.
As for D305K, the “effect of a mutation on the interaction” value is “with no effect”.
With D305E the entry was “with no effect”; with F15A, “disrupting interaction strength”; with T296K, “with no effect”.
In the case of P202A, the “effect of a mutation on the interaction” value is given as “with no effect”.
Take P202E: the “effect of a mutation on the interaction” value was “with no effect”.
With G335K the entry was “with no effect”; with Y257K, “disrupting interaction strength”.
For K328A, the “effect of a mutation on the interaction” value is “with no effect”.
With K328E the entry was “with no effect”; with Q174A, “with no effect”; with F303K, “with no effect”.
In the case of K41A it was “with no effect”; in that of N44K, “with no effect”.
With N307E the entry was “with no effect”; with I79E, “with no effect”.
As for K308A, the “effect of a mutation on the interaction” value is “with no effect”.
As for L77A, the “effect of a mutation on the interaction” value was “with no effect”.
With E319K the entry was “with no effect”; with K326E, “with no effect”; with N176K, “with no effect”.
With L17E the entry was “disrupting interaction strength”; with L17R, “disrupting interaction strength”.
With D195K the entry was “with no effect”; with D195E, “with no effect”; with S144E, “with no effect”.
Consider F121E, for which the “effect of a mutation on the interaction” value is given as “with no effect”.
With T53E the entry was “with no effect”.
With T53K the entry was “with no effect”; with L142K, “with no effect”.
With I31E the entry was “with no effect”; with T80I, “disrupting interaction strength”.
As for D35K, the “effect of a mutation on the interaction” value was “with no effect”.
In the case of S196K it was “with no effect”; in that of E325A, “with no effect”.
In the case of I97K it was “disrupting interaction strength”; in that of L204A, “with no effect”.
On to N165E, for which the “effect of a mutation on the interaction” value was “with no effect”.
In the case of V67K it was “with no effect”; in that of V67E, “with no effect”; in that of V240E, “with no effect”.
With D266E the entry was “with no effect”; with R119A, “with no effect”; with R119E, “with no effect”.
In the case of V114E it was “with no effect”; in that of V114K, “with no effect”.
In the case of V199E, the “effect of a mutation on the interaction” value is on record as “with no effect”.
In the case of G230E it was “with no effect”.
In the case of G230A it was “with no effect”; in that of I211A, “with no effect”; in that of I211K, “with no effect”.
With V71E the entry was “with no effect”.
With G217A, the “effect of a mutation on the interaction” value was “with no effect”.
As for G217K, the “effect of a mutation on the interaction” value was “with no effect”.
In the case of T332E it was “with no effect”; in that of T332A, “with no effect”.
In the case of V339A it was “with no effect”; in that of F197K, “with no effect”; in that of F197A, “with no effect”.
With L62K, the “effect of a mutation on the interaction” value is “with no effect”.
In the case of E282K it was “with no effect”; in that of I164K, “with no effect”; in that of M269K, “with no effect”.
With G178E the entry was “disrupting interaction strength”; with H190E, “with no effect”; with E271K, “with no effect”.
In the case of H295A it was “with no effect”; in that of G27A, “disrupting interaction strength”; in that of L220E, “with no effect”.
With S252K, the “effect of a mutation on the interaction” value was “with no effect”.
In the case of V315A it was “with no effect”; in that of H60K, “with no effect”.
With S258A the entry was “with no effect”; with K163E, “with no effect”.
With Q227A the entry was “disrupting interaction strength”.
L320K: the “effect of a mutation on the interaction” value was “with no effect”.
With V247I the entry was “disrupting interaction strength”; with S292A, “with no effect”; with Y96K, “with no effect”.
In the case of R25A it was “with no effect”; in that of L58A, “with no effect”; in that of F299E, “with no effect”.
In the case of N74K it was “with no effect”; in that of A126E, “with no effect”.
As for V127A, the “effect of a mutation on the interaction” value is listed as “with no effect”.
Take V127K: the “effect of a mutation on the interaction” value is recorded as “with no effect”.
G229A: the “effect of a mutation on the interaction” value is reported as “with no effect”.
G229S: the “effect of a mutation on the interaction” value is given as “disrupting interaction strength”.
Consider V232E, for which the “effect of a mutation on the interaction” value is “with no effect”.
In the case of T92E it was “with no effect”; in that of N43K, “with no effect”; in that of K248E, “with no effect”.
As to T179E, the “effect of a mutation on the interaction” value is on record as “with no effect”.
On to L34A, for which the “effect of a mutation on the interaction” value was “with no effect”.
With G166A the entry was “with no effect”.
With R212E the entry was “with no effect”; with R212A, “with no effect”; with D293E, “with no effect”.
In the case of T24A it was “with no effect”.
In the case of V69A, the “effect of a mutation on the interaction” value is “with no effect”.
With E107K the entry was “with no effect”; with E107A, “with no effect”; with Q285E, “with no effect”.
Regarding D162K, the “effect of a mutation on the interaction” value is “with no effect”.
In the case of S103E it was “with no effect”; in that of S36K, “with no effect”; in that of I109E, “with no effect”.
In the case of R66E it was “with no effect”; in that of S214K, “with no effect”; in that of I37K, “with no effect”.
With I37E the entry was “with no effect”; with F216E, “with no effect”.
For the variant L113E, the “effect of a mutation on the interaction” value is listed as “with no effect”.
For L113A, the “effect of a mutation on the interaction” value is “with no effect”.
In the case of C33E it was “with no effect”; in that of E318A, “with no effect”; in that of D297E, “with no effect”.
In the case of S208K it was “with no effect”; in that of S208A, “with no effect”.
Turning to A301K, the “effect of a mutation on the interaction” value is “with no effect”.
With C101A the entry was “with no effect”; with I201E, “with no effect”.
With D46A the entry was “with no effect”; with D46N, “disrupting interaction strength”; with R143A, “with no effect”.
With V160E the entry was “with no effect”; with V188A, “with no effect”; with R312E, “with no effect”.
For M1E, the “effect of a mutation on the interaction” value is “with no effect”.
With W337E the entry was “with no effect”; with V288E, “with no effect”; with V288A, “with no effect”.
With R49A the entry was “with no effect”; with H254E, “with no effect”.
For the variant H254K, the “effect of a mutation on the interaction” value is “with no effect”.
As to A19K, the “effect of a mutation on the interaction” value was “with no effect”.
For the variant D287A, the “effect of a mutation on the interaction” value is listed as “with no effect”.
With G321A the entry was “with no effect”; with R153K, “with no effect”; with E289A, “with no effect”.
With N68E the entry was “with no effect”; with F108A, “with no effect”.
In the case of V265A it was “with no effect”; in that of L98K, “with no effect”; in that of Y137A, “with no effect”.
As to D286A, the “effect of a mutation on the interaction” value is on record as “with no effect”.
With S123F the entry was “disrupting interaction strength”.
As to S123A, the “effect of a mutation on the interaction” value is “with no effect”.
With T133A the entry was “with no effect”.
